Measurements from PMC2915561 (Biochemistry, 2010).

B1: LovK (25–138), isolated LOV core (domain or fragment, Caulobacter crescentus, UniProt Q9ABE3 25-138, looked up)
chain: AAAISATRMAMIVADATQPDIPIIFANDAFLRLTGYARDEVIGRNCRFLQGPDTDPKAIQAVRDALAAGEDVAVDLLNYRKDGSPFWNALNMSPVRNDAGQLVYFFGSQVDVTD
B2: LovK (1–368), full-length Caulobacter crescentus LOV-histidine kinase (enzyme, UniProt Q9ABE3 1-368, looked up)
chain: MEDYSESRRAGERLAAGHGVDDPFAAAISATRMAMIVADATQPDIPIIFANDAFLRLTGYARDEVIGRNCRFLQGPDTDPKAIQAVRDALAAGEDVAVDLLNYRKDGSPFWNALNMSPVRNDAGQLVYFFGSQVDVTDKKVVELRARDHSDGLQQMVEERTRELTEALKQKTALLHEVDHRVKNNLQLISSLLLLQNRRVPDPAVKASLRGMLGRVNAIATVHRRLFQSEDVERFDVSAFIRDMVADLMGSAMRDDIRVELDLERVEIPAAKAAPLALVVNELLTNALRHGFPEGRGGRIFVGLSRLNGDFRIEITDDGVGQDRETRASGFGLTIVQLLCQQLKAKWETTDAEPGTRVVVLLPINGTQ
B3: LovK C70A (1–368), full-length "blind" mutant (enzyme, Caulobacter crescentus, UniProt Q9ABE3 1-368, looked up)
chain: MEDYSESRRAGERLAAGHGVDDPFAAAISATRMAMIVADATQPDIPIIFANDAFLRLTGYARDEVIGRNARFLQGPDTDPKAIQAVRDALAAGEDVAVDLLNYRKDGSPFWNALNMSPVRNDAGQLVYFFGSQVDVTDKKVVELRARDHSDGLQQMVEERTRELTEALKQKTALLHEVDHRVKNNLQLISSLLLLQNRRVPDPAVKASLRGMLGRVNAIATVHRRLFQSEDVERFDVSAFIRDMVADLMGSAMRDDIRVELDLERVEIPAAKAAPLALVVNELLTNALRHGFPEGRGGRIFVGLSRLNGDFRIEITDDGVGQDRETRASGFGLTIVQLLCQQLKAKWETTDAEPGTRVVVLLPINGTQ
B4: LovK (25–163) (domain or fragment, Caulobacter crescentus, UniProt Q9ABE3 25-163, looked up)
chain: AAAISATRMAMIVADATQPDIPIIFANDAFLRLTGYARDEVIGRNCRFLQGPDTDPKAIQAVRDALAAGEDVAVDLLNYRKDGSPFWNALNMSPVRNDAGQLVYFFGSQVDVTDKKVVELRARDHSDGLQQMVEERTRE
B5: LovK (1–163) (domain or fragment, Caulobacter crescentus, UniProt Q9ABE3 1-163, looked up)
chain: MEDYSESRRAGERLAAGHGVDDPFAAAISATRMAMIVADATQPDIPIIFANDAFLRLTGYARDEVIGRNCRFLQGPDTDPKAIQAVRDALAAGEDVAVDLLNYRKDGSPFWNALNMSPVRNDAGQLVYFFGSQVDVTDKKVVELRARDHSDGLQQMVEERTRE
B6: LovK (1–138) (domain or fragment, Caulobacter crescentus, UniProt Q9ABE3 1-138, looked up)
chain: MEDYSESRRAGERLAAGHGVDDPFAAAISATRMAMIVADATQPDIPIIFANDAFLRLTGYARDEVIGRNCRFLQGPDTDPKAIQAVRDALAAGEDVAVDLLNYRKDGSPFWNALNMSPVRNDAGQLVYFFGSQVDVTD

Key:
SEC [1] = molecular target: the molecule itself; assay: SEC
SEC [2] = molecular target: the molecule itself; assay: SEC; remark: listed apart in the source
SAXS = molecular target: the molecule itself; assay: SAXS

Protein	stoichiometry N (SEC [1])	also measured
B1	2	
B2		stoichiometry N (SEC [2]): 2
B3		stoichiometry N (SAXS): 2
B4	2	
B5	2	
B6	2	
